T1: mouse ENTPD2 (Mus musculus, UniProt O55026)
T1 construct: expressed in transfected cells; host or cells: NIH/3T3 (retroviral transduction)
T1 sequence (O55026 1-495): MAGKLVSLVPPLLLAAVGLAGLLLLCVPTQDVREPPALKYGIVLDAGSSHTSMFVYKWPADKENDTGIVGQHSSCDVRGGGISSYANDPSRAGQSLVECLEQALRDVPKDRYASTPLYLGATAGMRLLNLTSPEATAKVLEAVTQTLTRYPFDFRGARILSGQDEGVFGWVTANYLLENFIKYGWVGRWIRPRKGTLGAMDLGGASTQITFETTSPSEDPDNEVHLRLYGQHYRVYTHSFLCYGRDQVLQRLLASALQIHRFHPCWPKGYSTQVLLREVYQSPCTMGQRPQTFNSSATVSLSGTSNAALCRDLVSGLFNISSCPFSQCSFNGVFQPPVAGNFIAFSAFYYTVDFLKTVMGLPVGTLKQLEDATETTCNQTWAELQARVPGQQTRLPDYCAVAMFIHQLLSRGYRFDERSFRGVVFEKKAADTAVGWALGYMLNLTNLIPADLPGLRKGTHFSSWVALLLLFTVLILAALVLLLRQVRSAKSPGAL

T2: Human ENTPD1 (Homo sapiens, UniProt P49961)
T2 construct: expressed in transfected cells; host or cells: NIH/3T3 (retroviral transduction, FACS-sorted)
T2 sequence (P49961 1-510): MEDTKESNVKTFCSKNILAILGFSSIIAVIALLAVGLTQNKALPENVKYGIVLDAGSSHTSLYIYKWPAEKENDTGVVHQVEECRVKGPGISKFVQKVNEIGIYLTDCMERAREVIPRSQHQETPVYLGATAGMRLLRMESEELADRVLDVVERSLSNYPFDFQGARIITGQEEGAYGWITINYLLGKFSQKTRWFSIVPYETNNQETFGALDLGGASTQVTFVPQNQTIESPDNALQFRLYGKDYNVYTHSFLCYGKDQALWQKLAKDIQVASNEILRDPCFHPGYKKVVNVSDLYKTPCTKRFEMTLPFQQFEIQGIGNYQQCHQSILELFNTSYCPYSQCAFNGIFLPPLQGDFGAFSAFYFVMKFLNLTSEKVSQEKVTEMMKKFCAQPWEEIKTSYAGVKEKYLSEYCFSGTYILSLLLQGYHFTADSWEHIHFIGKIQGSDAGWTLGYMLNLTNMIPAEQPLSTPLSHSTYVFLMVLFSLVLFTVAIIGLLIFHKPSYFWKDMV

B1: mAb13: anti-mouse ENTPD2 antibody; HC SEQ ID NO: 193, LC SEQ ID NO: 204 (antibody)
heavy: QVQLVQSGAELKQPGQSVKISCKASGYTFTHYGMNWVKQAPGQGLKWMGWINTDTGNPTYADDFKGRFVFSLDTSVSTAYLQISNLKNEDTATYYCVRYGTLYSGYGFFFDSWGQGTLVTVSSAKTTAPSVYPLAPVCGDTTGSSVTLGCLVKGYFPEPVTLTWNSGSLSSGVHTFPAVLQSDLYTLSSSVTVTSSTWPSQSITCNVAHPASSTKVDKKIEPRGPTIKPCPPCKCPAPNLLGGPSVFIFPPKIKDVLMISLSPIVTCVVVDVSEDDPDVQISWFVNNVEVHTAQTQTHREDYNSTLRVVSALPIQHQDWMSGKEFKCKVNNKDLPAPIERTISKPKGSVRAPQVYVLPPPEEEMTKKQVTLTCMVTDFMPEDIYVEWTNNGKTELNYKNTEPVLDSDGSYFMYSKLRVEKKNWVERNSYSCSVVHEGLHNHHTTKSFSRTPGK
light: DIMMTQSPSSLSVSAGEKATITCKSSQSLFNSNTNKNYLNWYLQKPGQSPKLLFYYASTRHTGVPDRFIGSGSGTDFTLTITSVQDEDLADYYCQQWYSYPWTFGPGTKLEIKRADAAPTVSIFPPSSEQLTSGGASVVCFLNNFYPKDINVKWKIDGSERQNGVLNSWTDQDSKDSTYSMSSTLTLTKDEYERHNSYTCEATHKTSTSPIVKSFNRNEC
B2: mAb7: humanized anti-human ENTPD2 antibody from mAb17; VH SEQ ID NO: 25, VL SEQ ID NO: 78 (antibody, V domains shown)
VH: QVQLVQSGAEVVKPGASVKISCKASGYTFTDYNMDWVKQAPGQRLEWIGDINPKYDISTYNQQFKGKATITVDKSASTAYMELSSLRSEDTAVYYCARRGFFLYYGINYYYFDVWGQGTLVTVSS
VL: EIVLTQSPATLSASPGEEITLSCSASSSVSYIHWYQQKPGQAPRLLIYSTSNLASGIPARFSGSGSGTFYTLTISSVEPEDAAVYYCHQWSSYPWTFGGGTKLEIK

Assays:
mouse ENTPD2 = target: T1, mouse ENTPD2; assay: Mouse ENTPD2 NIH/3T3 cell-based functional assay
Text: Biochemical and cell-based functional assays were developed in-house to understand functional impact of anti-ENTPD2 Abs against purified extracellular domain of ENTPD2 (residues 29-462), as well as against the fully intact protein in the context of the native cell-based conformation. ENTPD2 hydrolyzes ATP to ADP, which can subsequently be detected using the HTRF Transcreener ADP2 TR-FRET Red Assay (BellBrook Labs, Madison, Wis.) where ENTPD2-produced ADP would compete with the ADP Tracer for binding to the anti-ADP-Tb antibody. The resulting signal is inversely proportional to the concentration of ADP in the sample.
To establish cell-based functional assays, human/cyno/mouse ENTPD2-engineered NIH/3T3 cells or RKO (ATCC, Manassa Va.) colorectal cancer cells with endogenous ENTPD2 expression were plated overnight at 150, 200 and 250 cells per well for NIH/3T3 mouse, cyno and human ENTPD2 lines, respectively, or 1000 cells per well for RKO in 384-well tissue culture plate, in 30 μl per well (Perkin Elmer, Waltham, Mass.). The following day cells were pre-incubated with Anti-ENTPD2 Abs in dose response for 60 min at 37° C., 5% CO2 (10 μl of 5× antibody dose per well), and subsequently stimulated with a final concentration of 10 μM ATP (Teknova, Hollister, Calif.) for 20 minutes at room temperature (10 μl of 5× (50 μM) ATP per well). Reactions were quenched with 40 mM EDTA/40 mM EGTA, 25 μl per well, and 15 μl of quenched media was transferred to low volume Proxiplates (PerkinElmer, Waltham, Mass.) for ADP detection. ADP production was detected with the Transcreener ADP2 TR-FRET Red Assay (BellBrook Labs, Madison, Wis.) with a final concentration of 4 nM ADP2 antibody and 13.4 nM of ADP Tracer in wells (4× solution was prepared and 5 μL of “Detection Reagent Mix” was added to the quenched conditioned media). Plates were incubated with detection reagents for 1 hour at room temperature prior to reading plates in HTRF mode.
HTRF signal (Emission at 620 nm and 665 nm) was assessed in both assays using the Envision plate reader in HTRF mode (Perkin Elmer, Waltham, Mass.). HTRF ratio was determined using the following formula: HTRF ratio=R=Emission at 665 nm/Emission at 620 nm×10,000. Subsequently % Residual Activity and % Inhibition were determined as follows:
Where R0% is the HTRF ratio of the negative control (0% enzyme activity), and R100% is the HTRF ratio of the positive control (100% enzyme activity). Data were analyzed in Microsoft Excel and graphed using GraphPad's Prism 7.0 software and IC50 values were obtained using non-linear regression, log (agonist) vs. response-variable slope (four parameters) analysis.
Anti-ENTPD2 mAb13 was identified as a mouse ENTPD2 selective Ab (FACS EC50 3-4 nM) with no binding to human or cyno ENTPD2.

Human ENTPD1 = target: T2, Human ENTPD1; assay: Cross reactivity: FACS binding to human ENTPD1 expressing NIH/3T3 cells; conditions: NIH/3T3-ENTPD1 cells, 50 nM antibody
Description: FACS screening: Specific binding of candidate antibodies to endogenously expressed ENTPD2 was assessed by flow cytometry. Cells were rinsed thoroughly with 1×PBS and treated with Accutase (Millipore #SCR005) to lift from growth plates and resuspended at approximately 1×10^5 cells/90 μL in 1× FACS buffer (2% FBS+0.1% NaN3 in PBS). In a 96-well U-bottom plate, 10 μL of 10× antibody solution in FACS buffer was pre-seeded and 90 μL of cell suspension was added. Cell were incubated for 30 minutes at 4° C., washed 1× with cold PBS and resuspended in 100 μL of 1:500 secondary antibody 1× FACS buffer (Allophycocyanin conjugated F(ab′)2 goat anti-human IgG, Fcγ specific; Jackson Immunoresearch, Cat#109-136-098). After additional incubation for 15 min at 4° C., cells were washed twice with PBS and resuspended in 100 μL of 1×FACS buffer with 4 μg/mL propidium iodide (Life Technologies, Cat#P3566). Geometric mean fluorescence intensity was calculated on live single cells using FlowJo software.
Cross reactivity Human ENTPD1 (NP_001767) expressing NIH/3T3 cells were generated using a retroviral transduction approach. 72 hrs post transduction, engineered cells were stained with the anti-Human CD39/ENTPD1 APC-conjugated Antibody (R&D systems, Minneapolis, Minn.) and live cells that expressed human ENTPD1 were separated from the rest of the population via fluorescence activated cell sorting. […]

| Molecule | maximum target inhibition (mouse ENTPD2 inhibition) (mouse ENTPD2; NIH3T3-mouse ENTPD2 engineered cell line) [%] | % Inhibition at 100 nM (±Std Err) (mouse ENTPD2; mouse ENTPD2 NIH/3T3 cells, 100 nM) [%] | Apparent FACS binding at 50 nM (Human ENTPD1) |
| --- | --- | --- | --- |
| B1 | 44 | 44 ± 7.3 |  |
| B2 |  |  | No binding |
